Results as given in paper PMC8934652.

Legend:
CELF1 RRM1/2 [1] = target: T1, CELF1 RRM1/2 (UniProt Q92879 1-187); test: FP competition
CELF1 RRM1/2 [2] = target: T1, CELF1 RRM1/2; test: FP
CELF1 RRM1/2 S147A = CELF1 RRM1/2 S147A (UniProt Q92879 1-187, S147A); test: FP
Chain of CELF1 RRM1/2 S147A (Q92879 1-187 S147A): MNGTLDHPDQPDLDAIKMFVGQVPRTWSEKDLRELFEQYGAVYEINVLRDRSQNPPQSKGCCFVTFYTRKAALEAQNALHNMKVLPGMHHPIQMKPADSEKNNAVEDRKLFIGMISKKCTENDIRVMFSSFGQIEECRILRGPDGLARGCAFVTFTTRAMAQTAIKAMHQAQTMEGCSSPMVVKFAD

T1 sequence (Q92879 1-187): as the sequence (Q92879 1-187 S147A) above, with A147S counted along it

Binder | binding result (CELF1 RRM1/2 [1]) | binding result (CELF1 RRM1/2 [2]) | binding result (CELF1 RRM1/2 S147A)
UUGUUGUU (ssRNA) [GU cold probe] | binds |  | 
UUGUUGUU (ssRNA) [GU probe] |  | binds | binds
